# Molecular target: human toll-like receptor 5 (hTLR5) on HEK-Blue-hTLR5 cells (human) (UniProt O60602)
# Sequence of UniProt O60602 (O60602 21-858): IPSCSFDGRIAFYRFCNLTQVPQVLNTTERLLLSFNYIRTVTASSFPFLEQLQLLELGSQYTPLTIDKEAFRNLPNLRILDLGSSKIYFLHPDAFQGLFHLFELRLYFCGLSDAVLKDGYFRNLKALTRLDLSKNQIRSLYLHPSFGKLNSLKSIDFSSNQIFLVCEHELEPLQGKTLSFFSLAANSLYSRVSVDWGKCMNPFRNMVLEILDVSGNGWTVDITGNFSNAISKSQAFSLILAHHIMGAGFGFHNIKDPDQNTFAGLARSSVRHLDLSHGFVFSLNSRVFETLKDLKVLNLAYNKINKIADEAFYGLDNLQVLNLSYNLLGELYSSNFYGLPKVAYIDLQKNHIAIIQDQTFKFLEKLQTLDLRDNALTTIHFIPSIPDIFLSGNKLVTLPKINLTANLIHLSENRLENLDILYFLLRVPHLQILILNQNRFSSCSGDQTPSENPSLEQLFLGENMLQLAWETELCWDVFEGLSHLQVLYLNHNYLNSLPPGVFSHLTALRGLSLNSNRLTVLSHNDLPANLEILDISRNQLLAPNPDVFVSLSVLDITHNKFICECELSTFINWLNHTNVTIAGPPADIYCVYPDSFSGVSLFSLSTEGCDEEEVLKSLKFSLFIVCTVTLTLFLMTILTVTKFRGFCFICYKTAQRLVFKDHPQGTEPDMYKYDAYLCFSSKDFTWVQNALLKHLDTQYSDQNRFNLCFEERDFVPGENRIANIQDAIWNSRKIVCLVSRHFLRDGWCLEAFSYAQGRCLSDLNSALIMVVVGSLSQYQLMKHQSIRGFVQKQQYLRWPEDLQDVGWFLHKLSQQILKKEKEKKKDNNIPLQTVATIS
substance,measurement,value
Lawsonia intracellularis putative flagellin LI0570 (LFliC) (natural protein),"IL-8 mRNA level (RT-PCR, 2^-ddCt) in HEK-Blue-hTLR5 cells treated with 10 and 100 ng/mL LFliC for 24 h",590 fold
